Like-named read-outs stand apart in the source and are kept apart here.
Tests used:
[1] = tested on: 21 bp double-stranded DNA; test: NMR titration (1H-15N HSQC) of 15N-H4 tail peptide with dsDNA; type: binding; conditions: 30 μM peptide; DNA ratios up to 1:3; 20 mM MOPS pH 7.2, 150 mM KCl, 25 °C
Description: The histone H4 tail (residues 1–25 followed by a C-terminal tyrosine for quantification) was expressed from pGEX6p as a fusion with an N-terminal GST tag followed by a PreScission protease cleavage site (Supplementary file 2A). This was overexpressed in E. coli BL21 (DE3) (NEB) grown in M9 minimal media supplemented with vitamin (Centrum daily multivitamin), 1 g/L ^15NH4Cl, and 5 g/L D-glucose. Cells were grown to OD600 ~1.0 and induced with 0.5 mM IPTG at 37 °C for 4 hr. The ^15N-GST-H4 peptide fusion was purified on glutathione agarose resin (Thermofisher Scientific), cleaved with PreScission protease (16 hr at 4 °C), and products resolved by SEC (Superdex 75 10/300; GE Healthcare Life Sciences). […] Acquisition and deconvolution software used during data collection and analysis were MassLynx and MaxEnt, respectively. ^15N-H4 (1-25) peptide concentration was determined by UV-vis spectroscopy using the non-native C-terminal tyrosine.
Oligonucleotides (5’-[…]-3’ and the complement 5’-[…]-3’) for DNA titration NMR were from Integrated DNA Technologies (IDT). […] Duplex DNA was purified on a source 15Q column (GE Healthcare Life Sciences) and analyzed by 1% agarose gel. DNA was precipitated in ethanol, resuspended in ddH2O, and concentration was determined by UV-vis and the predicted extinction coefficient (ε260=333,804.5 M^–1 cm^–1). […]

BPTF PHD-BD (GST-tagged) [2] = target: T1, BPTF PHD-BD (GST-tagged) (Homo sapiens, UniProt Q12830); test: dCypher binding assay, histone peptides, GST-PHD-BD Query
T1 construct: Q12830 (2865-3036); made in house; host or cells: E. coli BL21 (DE3)
Source text: (§1) Human BPTF (Uniprot Q12830) PHD finger-bromodomain (PHD-BD) and PHD finger were cloned into pGEX6p with an N-terminal Glutathione S-Transferase (GST) tag and a PreScission protease cleavage site (Supplementary file 2A and Figure 1—figure supplement 2). BPTF BD with an N-terminal 6xHistidine (6His) tag and Tobacco Etch Virus (TEV) protease cleavage site was from Addgene (plasmid 39111). The Q5 site-directed mutagenesis kit (New England Biolabs [NEB]) was used for domain addition/removal or single amino acid substitutions. All constructs were expressed in E. coli BL21 (DE3) (Thermo Fisher Scientific or NEB). Cells were grown to OD600 ~1.0 and induced with 0.8 mM IPTG at 18 °C for ~16 hr in LB (or M9 minimal media for NMR). M9 media was supplemented with vitamin (Centrum Adult), 1 g/L ^15NH4Cl, and 5 g/L D-glucose. For constructs containing the BPTF PHD finger all growth media and buffers were supplemented with 100 μM ZnCl2. For purification of BPTF recombinants cells were lysed by sonication, and lysates were incubated with either glutathione agarose (Thermo Fisher Scientific) or Ni-NTA resin (Thermo Fisher Scientific) to respectively enrich for GST- and 6His-tagged proteins. Fusion proteins were eluted with reduced L-glutathione or imidazole as appropriate. […] Protein concentrations were determined by UV-Vis spectroscopy. […]

[3] = tested on: GST-PHD^W2891A-BD (GST-PHD^mut-BD); type: binding, Human; conditions: for binding: NCPs
Source text: Human BPTF (Uniprot Q12830) PHD finger-bromodomain (PHD-BD) and PHD finger were cloned into pGEX6p with an N-terminal Glutathione S-Transferase (GST) tag and a PreScission protease cleavage site (Supplementary file 2A and Figure 1—figure supplement 2). BPTF BD with an N-terminal 6xHistidine (6His) tag and Tobacco Etch Virus (TEV) protease cleavage site was from Addgene (plasmid 39111). The Q5 site-directed mutagenesis kit (New England Biolabs [NEB]) was used for domain addition/removal or single amino acid substitutions. All constructs were expressed in E. coli BL21 (DE3) (Thermo Fisher Scientific or NEB). Cells were grown to OD600 ~1.0 and induced with 0.8 mM IPTG at 18 °C for ~16 hr in LB (or M9 minimal media for NMR). M9 media was supplemented with vitamin (Centrum Adult), 1 g/L ^15NH4Cl, and 5 g/L D-glucose. For constructs containing the BPTF PHD finger all growth media and buffers were supplemented with 100 μM ZnCl2. For purification of BPTF recombinants cells were lysed by sonication, and lysates were incubated with either glutathione agarose (Thermo Fisher Scientific) or Ni-NTA resin (Thermo Fisher Scientific) to respectively enrich for GST- and 6His-tagged proteins. Fusion proteins were eluted with reduced L-glutathione or imidazole as appropriate. For NMR, samples were cleaved from the GST tag using PreScission protease. All BPTF proteins were then further purified using anion exchange (Source 15Q, GE Healthcare Life Sciences) and size exclusion chromatography (SEC; Superdex 75, GE Healthcare Life Sciences). Protein concentrations were determined by UV-Vis spectroscopy.
The dCypher approach (dCypher for brevity) was developed on the chemiluminescent bead-based, no-wash Alpha platform (PerkinElmer) for the high-throughput profiling of CAP binding to PTM-defined histone peptides and semi-synthetic nucleosomes (homotypic NCPs unless stated otherwise) ([Marunde et al., 2022a]; [Morgan et al., 2021]; [Weinberg et al., 2019]; [Dilworth et al., 2022]; [Weinberg et al., 2021]; [Jain et al., 2020]; [Lloyd et al., 2020]). […]

BPTF BD (6His-tagged) [4] = target: T2, BPTF BD (6His-tagged) (Homo sapiens, UniProt Q12830); test: dCypher binding assay, NCPs, 6His-BD Query
T2 construct: Q12830 (2914-3037); host or cells: E. coli BL21 (DE3)
Source text: Human BPTF (Uniprot Q12830) PHD finger-bromodomain (PHD-BD) and PHD finger were cloned into pGEX6p with an N-terminal Glutathione S-Transferase (GST) tag and a PreScission protease cleavage site (Supplementary file 2A and Figure 1—figure supplement 2). BPTF BD with an N-terminal 6xHistidine (6His) tag and Tobacco Etch Virus (TEV) protease cleavage site was from Addgene (plasmid 39111). The Q5 site-directed mutagenesis kit (New England Biolabs [NEB]) was used for domain addition/removal or single amino acid substitutions. All constructs were expressed in E. coli BL21 (DE3) (Thermo Fisher Scientific or NEB). […] Protein concentrations were determined by UV-Vis spectroscopy.
The dCypher approach (dCypher for brevity) was developed on the chemiluminescent bead-based, no-wash Alpha platform (PerkinElmer) for the high-throughput profiling of CAP binding to PTM-defined histone peptides and semi-synthetic nucleosomes (homotypic NCPs unless stated otherwise) ([Marunde et al., 2022a]; [Morgan et al., 2021]; [Weinberg et al., 2019]; [Dilworth et al., 2022]; [Weinberg et al., 2021]; [Jain et al., 2020]; [Lloyd et al., 2020]). […] The plate was incubated at room temperature in subdued lighting for 60 min and the Alpha signal was measured on a PerkinElmer 2104 EnVision (680 nm laser excitation, 570 nm emission filter ± 50 nm bandwidth). […]

BPTF PHD (6His-tagged) = target: T3, BPTF PHD (6His-tagged) (Homo sapiens, UniProt Q12830); test: dCypher binding assay, histone peptides, 6His-PHD Query; conditions: Table (Ext. Figure 2A), 4PL fit, H3 1-20 top constrained (426889)
T3 construct: Q12830 (2865-2924); made in house; host or cells: E. coli BL21 (DE3)
Source text: as §1

BPTF BD (6His-tagged) [5] = target: T2, BPTF BD (6His-tagged); test: dCypher binding assay, histone peptides, 6His-BD Query; conditions: Table (Ext. Figure 2A), 4PL fit, top constrained (496106)
Source text: as §1

BPTF PHD-BD (GST-tagged) [6] = target: T1, BPTF PHD-BD (GST-tagged); test: dCypher binding assay, NCPs, GST-PHD-BD Query
Source text: as §1

Substance	DNA binding by CSPs (in words) [1]	preference over peptides containing each PTM class alone (in words) (BPTF PHD-BD (GST-tagged) [2])	binding ([3]; Figure 2B lower, PHDmut-BD W2891A)	binding to NCPs (in words) ([3]; GST-PHD^mut-BD)	binding ([3]; Table (Figure 2C), PHDmut-BD)	binding (BPTF BD (6His-tagged) [4]; Ext. Figure 2G, 6His BD)	binding (BPTF BD (6His-tagged) [4]; Table (Ext. Figure 2B), 6His-BD)	Log EC50rel (BPTF PHD (6His-tagged)) [M]	Log EC50rel (BPTF BD (6His-tagged) [5]) [M]	preference over H3K4me3 or H3tetra^ac (BPTF PHD-BD (GST-tagged) [6]) [fold]
^15N-H4 (1-25) peptide: histone H4 tail residues 1–25 followed by a C-terminal tyrosine, recombinant	the H4 tail bound DNA									
H3K4me3tri^ac: histone H3 peptide H3K4me3K9acK14acK18ac (NMR version aa 1–34)		no preference	no binding	lost binding	no binding	no binding	no binding	-7.000	-5.811	> 20
